Here are results for 2 molecules from PMC2120623.

What all share (test): two-hybrid
The target of experiment [1] is αγα chimera in pGBT9 (two-hybrid GAL4 DNA binding domain fusion) (not stated | bovine) (UniProt P17427).
Experiment [2] addresses AP47 in pGBT9 (two-hybrid GAL4 DNA binding domain fusion) (UniProt P35585).
The target in experiment [3] is AP50 in pGBT9 (two-hybrid GAL4 DNA binding domain fusion) (UniProt P84092).
UniProt P84092, sequence (P84092 whole entry, the tested form may be a part): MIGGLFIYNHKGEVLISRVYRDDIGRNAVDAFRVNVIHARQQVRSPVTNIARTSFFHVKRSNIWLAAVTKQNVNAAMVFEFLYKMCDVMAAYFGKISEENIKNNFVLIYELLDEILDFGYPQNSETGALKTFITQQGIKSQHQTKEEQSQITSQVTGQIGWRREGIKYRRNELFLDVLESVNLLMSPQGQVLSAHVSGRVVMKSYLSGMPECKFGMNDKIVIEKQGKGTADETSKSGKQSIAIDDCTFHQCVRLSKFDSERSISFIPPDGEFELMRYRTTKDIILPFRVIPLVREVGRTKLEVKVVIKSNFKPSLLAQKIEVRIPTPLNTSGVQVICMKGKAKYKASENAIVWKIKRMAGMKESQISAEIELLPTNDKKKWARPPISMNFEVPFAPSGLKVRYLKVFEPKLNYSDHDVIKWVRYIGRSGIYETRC

UniProt P17427, sequence (P17427 whole entry, change not shown, the tested form may be a part): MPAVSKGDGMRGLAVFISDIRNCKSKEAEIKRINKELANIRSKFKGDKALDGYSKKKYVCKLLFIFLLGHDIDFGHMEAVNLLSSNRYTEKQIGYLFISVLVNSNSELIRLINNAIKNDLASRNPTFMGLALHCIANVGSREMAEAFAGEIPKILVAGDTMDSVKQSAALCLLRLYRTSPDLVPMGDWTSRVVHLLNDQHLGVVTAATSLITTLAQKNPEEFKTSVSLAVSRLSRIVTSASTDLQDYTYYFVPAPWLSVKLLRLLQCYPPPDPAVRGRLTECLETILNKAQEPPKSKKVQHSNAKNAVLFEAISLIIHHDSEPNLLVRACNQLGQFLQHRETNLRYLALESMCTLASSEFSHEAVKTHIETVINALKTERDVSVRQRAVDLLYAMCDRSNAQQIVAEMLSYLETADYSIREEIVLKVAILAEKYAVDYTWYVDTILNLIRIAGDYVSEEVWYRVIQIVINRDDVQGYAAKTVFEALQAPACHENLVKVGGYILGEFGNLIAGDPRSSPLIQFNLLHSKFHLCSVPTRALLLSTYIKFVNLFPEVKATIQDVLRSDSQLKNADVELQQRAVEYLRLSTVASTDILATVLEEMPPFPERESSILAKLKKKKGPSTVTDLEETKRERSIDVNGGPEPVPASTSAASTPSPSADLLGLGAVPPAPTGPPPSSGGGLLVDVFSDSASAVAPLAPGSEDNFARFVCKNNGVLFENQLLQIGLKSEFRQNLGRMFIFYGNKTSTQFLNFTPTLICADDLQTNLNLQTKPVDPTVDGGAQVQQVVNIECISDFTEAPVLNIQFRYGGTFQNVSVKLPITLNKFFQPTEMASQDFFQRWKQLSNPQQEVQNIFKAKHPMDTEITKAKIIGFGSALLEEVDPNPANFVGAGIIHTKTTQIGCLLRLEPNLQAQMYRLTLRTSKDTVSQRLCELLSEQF
UniProt P35585, sequence (P35585 whole entry, the tested form may be a part): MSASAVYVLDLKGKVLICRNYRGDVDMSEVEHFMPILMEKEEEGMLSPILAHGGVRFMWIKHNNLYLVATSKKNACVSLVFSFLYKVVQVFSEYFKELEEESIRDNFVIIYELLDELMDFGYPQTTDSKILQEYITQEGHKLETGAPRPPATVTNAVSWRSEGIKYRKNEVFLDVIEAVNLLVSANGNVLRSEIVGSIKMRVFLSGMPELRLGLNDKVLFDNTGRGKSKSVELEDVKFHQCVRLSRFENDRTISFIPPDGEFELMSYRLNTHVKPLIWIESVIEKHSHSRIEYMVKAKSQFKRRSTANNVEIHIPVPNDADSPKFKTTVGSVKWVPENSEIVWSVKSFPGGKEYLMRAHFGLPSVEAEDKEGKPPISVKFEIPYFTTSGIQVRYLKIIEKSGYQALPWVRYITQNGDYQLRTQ

Consider “beta-adaptin in pGAD424 (two-hybrid activator fusion) (from UniProt P62944 1-937) (natural protein)”, for which the beta-galactosidase units was 38.6 units in experiment [1], 25.4 units in experiment [2] and 102 units in experiment [3].

B1: beta'-adaptin in pGAD424 (two-hybrid activator fusion) (natural protein)
chain: MTDSKYFTTTKKGEIFELKAELNSDKKEKKKEAVKKVIASMTVGKDVSALFPDVVNCMQTDNLELKKLVYLYLMNYAKSQPDMAIMAVNTFVKDCEDPNPLIRALAVRTMGCIRVDKITEYLCEPLRKCLKDEDPYVRKTAAVCVAKLHDINAQLVEDQGFLDTLKDLISDSNPMVVANRVAALSEIAESHPSSNLLDLKAQSINKLLTALNECTEWAQIFILDCLGNYMPKDDREAQSICERVTPRLSHANSAVVLSAVKVLMKFMEMLSKDLDYYATLLKKLAPPLVTLLSAEPEPQYVPLRNINLIVQKRPEILKHEMKVFFVKYNDPIYVKLEKLDIMIRLASQANIAQVLAELKEYATEVDVDFVRKAVRAIGRCAIKVEQSAERCVSTLLDLIQTKVNYVVQEAIVVIKDIFRKYPNKYESVIATLCENLDSLDEPEARAAMIWIVGEYAERIDNADELLESFLDGFHDESTQVQLQLLTAIVKLFLKKPTETQELVQQVLSLATQDSDNPDLRDRGYIYWRLLSTDPVAAKEVVLAEKPLISEETDLIEPTLLDELICYIGTLASVYHKPPNAFVEGGRGVVHKSLPPRTASSESTESPEAAPAGAPASDQPDVIPAQGDLLGDLLNLDLGPPVSGPPLAASSVQMGAVDLLGGGLDSLMGDEPEGIGDSNFGAPPASVAAAAPARLGAPVSSGLSDLFDLTSGVGTLSGSYVAPKAVWLPAMKAKGLEISGTFTRQVGSISMDLQLTNKALQVMTDFAIQFNRNSFGLAPAAPLQVHAPLSPNQTVEISLPLNTVGSVMKMEPLNNLQVAVKNNIDVFYFSTLYPLHVLFVEDGKMDRQMFLATWKDIPNENEAQFQIRDCPLNTEAASSKLQSSNIFTVAKRTVEGQDMLYQSLKLTNGIWVLAELRIQPGNPSFTLSLKCRAPEVSQHDIQAYETILKN
In experiment [1], B1 came in with a beta-galactosidase units of 22.3 units.
